Test results published in patent US20250340857A1 (SEISMIC THERAPEUTIC, published 2025).
Numbering of substitutions follows the chain as printed.

B1: FP142 (Fc fusion)
chain 1: DKTHTCPPCPAPEAAGAPSVFLFPPKPKDTLMISRTPEVTCVVVDVSHEDPEVKFNWYVDGVEVHNAKTKPREEQQNSTYRVVSVLTVLHQDWLNGKEYKCKVSNKALKAPIEKTISKAKGQPREPQVYTLPPCRDELTKNQVSLWCLVKGFYPSDIAVEWESNGQPENNYKTTPPVLDSDGSFFLYSKLTVDKSRWQQGNVFSCSVMHEALHNHYTQKSLSLSPGGGGSGGGGSGGGGSTALGRRKAEDRIKETLWADGVKIDEKDFEHIKSSHEDYFAVEYGKGSGYYDVNKKMDSEDTALCVGAVVTNMFHWWVDQNRENIEKFKKQDPENNGVMKFEGVKEATVDELNEFYRDNRDNYADQSRFFDLIKKHFGNKALNPEELFELYFNGFYYGSSHRYIEDNEPAQNNLFSKVLENNKLLNPERSYGIDGFSNNVINALKSHKVLGLVYTTPLRYRHIISMWGADIDQDGKVKAIYVTDSDDREITFNDNSKRRIGMIRYDVLVDDNGNIRFTGKGATHKEEGAIYAGLYSLSRGDEVWEDYFKKYPEVQENL
chain 2: DKTHTCPPCPAPEAAGAPSVFLFPPKPKDTLMISRTPEVTCVVVDVSHEDPEVKFNWYVDGVEVHNAKTKPREEQQNSTYRVVSVLTVLHQDWLNGKEYKCKVSNKALKAPIEKTISKAKGQPREPQVCTLPPSRDELTKNQVSLSCAVKGFYPSDIAVEWESNGQPENNYKTTPPVLDSDGSFFLVSKLTVDKSRWQQGNVFSCSVMHEALHNHYTQKSLSLSPG
B2: FP149 (Fc fusion)
chain: B1 chain 1 with C134S, W146T, D510K
B3: FP175 (Fc fusion)
chain 1: DKTHTCPPCPAPEAAGAPSVFLFPPKPKDTLMISRTPEVTCVVVDVSHEDPEVKFNWYVDGVEVHNAKTKPREEQQNSTYRVVSVLTVLHQDWLNGKEYKCKVSNKALKAPIEKTISKAKGQPREPQVYTLPPSRDELTKNQVSLWCLVKGFYPSDIAVEWESNGQPENNYKTTPPVLDSDGSFFLYSKLTVDKSRWQQGNVFSCSVLHEALHSHYTQKSLSLSPGGSSAPGSSAPGSSAPTALGRRKAEDRIKETLWADGVKIDEKDFEHIKSSHEDYFAVEYGKGSGYYDVNKKMDSEDSALCVGAVVTNMFHWWVDQNRENIEKFKKQDPENNGVMKFEGVKEATVDELNEFYRDNRDNYADQSRFFDLIKKHFGNKALNPEELFELYFNGFYYGSSHRYIEDNEPAQNNLFSKVLENNKLLNPERSYGIDGFSNNVINALKSHKVLGLVYTTPLRYRHIISMWGADIDQDGKVKAIYVTDSDDREITFNDNSKRRIGMIRYDVLVDDNGNIRFTGKGATHKEEGAIYAGLYSLSRGDEVWEDYFKKYPEVQENL
chain 2: B1 chain 2 with C129Y, M208L, N214S
B4: FP168 (Fc fusion)
chain 1: B3 chain 1 with S302T
chain 2: B1 chain 2 with C129Y, M208L, N214S
B5: FP143 (Fc fusion)
chain: B1 chain 1 with C134S, W146T, M208L, N214S
B6: FP183 (Fc fusion)
chain 1: DKTHTCPPCPAPEAAGAPSVFLFPPKPKDTLMISRTPEVTCVVVDVSHEDPEVKFNWYVDGVEVHNAKTKPREEQQNSTYRVVSVLTVLHQDWLNGKEYKCKVSNKALKAPIEKTISKAKGQPREPQVYTLPPSRDELTKNQVSLWCLVKGFYPSDIAVEWESNGQPENNYKTTPPVLDSDGSFFLYSKLTVDKSRWQQGNVFSCSVMHEALHNHYTQKSLSLSPGAEEEKAEEEKAEEEKTALGRRKAEDRIKETLWADGVKIDEKDFEHIKSSHEDYFAVEYGKGSGYYDVNKKMDSEDSALCVGAVVTNMFHWWVDQNRENIEKFKKQDPENNGVMKFEGVKEATVDELNEFYRDNRDNYADQSRFFDLIKKHFGNKALNPEELFELYFNGFYYGSSHRYIEDNEPAQNNLFSKVLENNKLLNPERSYGIDGFSNNVINALKSHKVLGLVYTTPLRYRHIISMWGADIDQDGKVKAIYVTDSDDREITFNDNSKRRIGMIRYDVLVDDNGNIRFTGKGATHKEEGAIYAGLYSLSRGDEVWEDYFKKYPEVQENL
chain 2: B1 chain 2 with C129Y
B7: FP171 (Fc fusion)
chain 1: B1 chain 1 with C134S, M208L, N214S, T301S
chain 2: B1 chain 2 with C129Y, M208L, N214S
B8: FP179 (Fc fusion)
chain 1: TALGRRKAEDRIKETLWADGVKIDEKDFEHIKSSHEDYFAVEYGKGSGYYDVNKKMDSEDSALCVGAVVTNMFHWWVDQNRENIEKFKKQDPENNGVMKFEGVKEATVDELNEFYRDNRDNYADQSRFFDLIKKHFGNKALNPEELFELYFNGFYYGSSHRYIEDNEPAQNNLFSKVLENNKLLNPERSYGIDGFSNNVINALKSHKVLGLVYTTPLRYRHIISMWGADIDQDGKVKAIYVTDSDDREITFNDNSKRRIGMIRYDVLVDDNGNIRFTGKGATHKEEGAIYAGLYSLSRGDEVWEDYFKKYPEVQENLDKTHTCPPCPAPEAAGAPSVFLFPPKPKDTLMISRTPEVTCVVVDVSHEDPEVKFNWYVDGVEVHNAKTKPREEQQNSTYRVVSVLTVLHQDWLNGKEYKCKVSNKALKAPIEKTISKAKGQPREPQVYTLPPSRDELTKNQVSLWCLVKGFYPSDIAVEWESNGQPENNYKTTPPVLDSDGSFFLYSKLTVDKSRWQQGNVFSCSVMHEALHNHYTQKSLSLSPG
chain 2: B1 chain 2 with C129Y
B9: FP145 (Fc fusion)
chain: B1 chain 1 with C134S, W146T, T301S
B10: FP165 (Fc fusion)
chain 1: B1 chain 1 with C134S, M208L, N214S
chain 2: B1 chain 2 with C129Y, M208L, N214S
B11: FP159 (Fc fusion)
chain: B1 chain 1 with C134S, W146T, D510K, E525N
B12: FP150 (Fc fusion)
chain: B1 chain 1 with C134S, W146T, N411G
B13: FP167 (Fc fusion)
chain 1: B3 chain 1 with L208M, S214N, S302T
chain 2: B1 chain 2 with C129Y
B14: FP164 (Fc fusion)
chain: B1 chain 1 with C134S, W146T, H375D
B15: FP163 (Fc fusion)
chain: B1 chain 1 with C134S, W146T, N511E
B16: FP158 (Fc fusion)
chain: B1 chain 1 with C134S, W146T, E541K, E544K
B17: FP160 (Fc fusion)
chain: B1 chain 1 with C134S, W146T, I432R, D510K, E525N, E541K, E544K
B18: FP170 (Fc fusion)
chain 1: B1 chain 1 with C134S, T301S
chain 2: B1 chain 2 with C129Y
B19: FP146 (Fc fusion)
chain: B1 chain 1 with C134S, W146T, K374S, K496A
B20: FP147 (Fc fusion)
chain: B1 chain 1 with C134S, W146T, H400Q, R458E
B21: FP174 (Fc fusion)
chain 1: B3 chain 1 with L208M, S214N
chain 2: B1 chain 2 with C129Y
B22: FP144 (Fc fusion)
chain: B1 chain 1 with L89D, Q91H, C134S, W146T, N214S
B23: FP178 (Fc fusion)
chain: B8 chain 1 with W463T

Molecular target: Human IgE antibody (human)
Assay: cell-based or functional assay

| Binder | EC50 CE-SDS IgE [nM] | EC50 MSD IgE [nM] |
| --- | --- | --- |
| B1 | 3.8 | – |
| B2 | 0.19 | 0.708 |
| B3 | 179 | 1.88 |
| B4 | 17.6 | 0.637 |
| B5 | 0.035 | 1.63 |
| B6 | 7.63 | 0.548 |
| B7 | 17.8 | 1.35 |
| B8 | 6.64 | 0.424 |
| B9 | 1.45 | 0.654 |
| B10 | 29.3 | 0.822 |
| B11 | 2.45 | – |
| B12 | 1.15 | 2.2 |
| B13 | – | 0.721 |
| B14 | 17.4 | – |
| B15 | 30.5 | – |
| B16 | 0.2 | – |
| B17 | 4.04 | – |
| B18 | 14.6 | 1.02 |
| B19 | 1.58 | – |
| B20 | 3.1 | – |
| B21 | 12.2 | 0.511 |
| B22 | 0.66 | – |
| B23 | 2.61 | 0.317 |
